Measured values published in US20140017242A1, “ANTI-BRADYKININ B2 RECEPTOR (BKB2R) MONOCLONAL ANTIBODY” (Diamedica, Inc., priority 2010, published 2014).

What was measured:
[1] = test system: ZDF fa/fa rats; test: Oral glucose tolerance test in ZDF fa/fa rats, single dose of 5F12G1; format: in vivo, rat; settings: single s.c. administration 1.0, 0.2 and 0.04 mg/kg
Method: This Example describes evaluation of oral glucose tolerance in Zucker Diabetic fatty (ZDF fa/fa) rats treated with 5F12G1 monoclonal antibody. Male ZDF fa/fa rats (Charles River) were maintained on a Harlan Tekled diet with Arrowhead drinking water ad libitum and allowed to acclimatize for one week. Six animals per group were treated according to the following treatment groups: 1, sterile PBS (vehicle control); 2, 1.0 mg/kg murine monoclonal antibody (mAb) 5F12G1 (VH comprising SEQ ID NO:1, VL comprising SEQ ID NO:2); 3, 0.2 mg/kg mAb 5F12G1; 4, 0.04 mg/kg mAb 5F12G1.
Oral Glucose Tolerance Test. The Oral Glucose Tolerance Test (OGTT) was performed on overnight fasted (16 hours) rats. Vehicle control (PBS) or 5F12G1 monoclonal antibody was administered subcutaneously thirty minutes prior to glucose loading. D-glucose was prepared in distilled water and administered orally at 2 g/kg body weight.
At multiple time points (0, 15, 30, 60, 90 and 120 minutes) blood samples of approximately 50 μl each were collected and processed to isolate the plasma. The plasma samples were analyzed for insulin by an ELISA method using an ultra sensitive mouse insulin ELISA kit (Crystal Chem, Inc., Downers Grove, Ill.). ELISA data were compiled and used to calculate the mean±standard error (SEM) with Microsoft Excel or GraphPad Prism version 5.00 for Windows (GraphPad Software, San Diego Calif. USA).

[2] = test system: ZDF fa/fa rats; test: 21-day ZDF fa/fa study: fasting blood glucose; format: in vivo, rat; settings: for fasting blood glucose level: day 21
Method: Animals. Male ZDF fa/fa rats were obtained from CRL (Kingston, N.Y.). Upon arrival, rats were seven weeks of age. The rats were housed individually per cage in a room with a photo cycle of 12 hours of light and 12 hours of dark and an ambient temperature of 70-72° F. and fed on regular rodent diet and water ad libitum. At the age of eleven weeks, rats were divided into six groups (Table 5) of eight rats per group based on fasting blood glucose levels. A sub-group of four rats per group was maintained in parallel to the main groups and was dosed similarly for twenty-one days for a hyperinsulinemic-euglycemic clamp study. […]
An oral glucose tolerance test (OGTT) was performed on Day 0, 7, 14 and 21 for each group of the study. Plasma samples were collected at each time point during OGTT to also measure insulin levels. Body weight, food and water intake were measured twice a week. Blood pressure and heart rates were monitored on Day 0, 7, 14 and 21 using a non-invasive tail cuff method (with five readings per rat taken and then averaged). Fasting serum samples were collected on Day 0, 7, 14 and 21 before OGTT for determination of triglyceride and total cholesterol level. Urine samples were collected on Day 7 and 14 for the determination of glycosuria. Glycated (Glycosylated) hemoglobin (HbA1c) was measured at the end of the study. Assay kits for these studies were as presented in Table 6, and were used according to the suppliers' instructions.
Fasting blood glucose levels were measured on Day 0, 7, 14 and 21.
The mean change in fasting blood glucose (mg/dL), serum cholesterol (mg/dL) and systolic blood pressure (mm Hg) from baseline (Day 0) to Day 21 was compared between the high-dose (5F12G1, 0.2 mg/kg) and negative control (MG2b-57, 0.2 mg/kg) groups using an analysis of covariance to adjust for baseline levels. The mean HbA1c percentage in high-dose (5F12G1, 0.2 mg/kg) rats was compared to the mean HbA1c percentage for negative control (MG2b-57, 0.2 mg/kg) rats using an unequal-variance, independent two-sample t-test. A significance level of a=0.05 was used for all tests, and all analyses were conducted using SAS statistical software (vs. 9.2, Cary, N.C., U.S.A.).

[3] = molecular target: T1, human BKB2R-derived epitope peptide, SE ID NO:73 (Homo sapiens, UniProt P30411); test: ForteBio Octet binding kinetics to the BKB2R epitope peptide
T1 construct: purchased Biosyn, Lewisville, Tex
Outline: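 Antibodies were titrated kinetically on a ForteBio Octet label-free biolayer interferometry platform against the human BKB2R epitope peptide (SEQ ID NO:73), compared with the parent mouse monoclonal. Streptavidin biosensors coated with biotinylated peptide at 50 μg/ml were equilibrated in kinetic buffer, then underwent 500 s association in antibody dilutions and 500 s dissociation in buffer.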

B1: 5F12G1: murine monoclonal anti-BKB2R antibody (IgG2b,κ), VH comprising SEQ ID NO:1, VL comprising SEQ ID NO:2 (antibody, listed as Mus musculus, V domains shown)
VH: EVKLEESGGGLVQPGGSMKLSCVVSGFTFSDYWMSWVRHSPEMGLEWVAEIRLKSDNYATHYAESVKGRFTISRDDSKSRLYLQINSLRGEDTGIYYCTRDYYAMEYWGQGTSVTVSS
VL: DVVMTQTPLSLPVSLGDQASISCRSSQTIVHSNGKTYLEWYLQKPGQSPKLLIYKVSNRFSGVPDRFSGSGSGTEFTLKISRVETEDLGVYYCFQASHVPYTFGGGTKLEIK
insulin activity in OGTT [1]: dose dependently increased insulin activity | area under curve (AUC) of blood glucose concentration after oral loading of glucose, compared to vehicle control ([1]; 30 min before glucose 2 g/kg): decreased | increase of fasting blood glucose from baseline ([2]; 0.2 mg/kg s.c. every 3 days, Day 0 to Day 21): 33.1 ± 19.7 mg/dL | fasting blood glucose level ([2]; 0.2 mg/kg s.c. every 3 days, baseline 117.6+/−14.2 (5F12G1), 116.5+/−25.8 (MG2b-57)): approximately 150.8+/−56.5 mg/dl | fasting blood glucose level ([2]; second of three values given respectively (0.04 mg/kg s.c. every 3 days)): ~163 ± 21 mg/dL | fasting blood glucose level ([2]; third of three values given respectively (0.008 mg/kg s.c. every 3 days)): ~190 ± 40 mg/dL | Max Response ([3]; Conc. 833 nM): 0.0265 | kdis ([3]; Conc. 833 nM): 0.00109 s⁻¹ | kon ([3]; Conc. 833 nM): 2350 M⁻¹ s⁻¹ | Max Response ([3]; Conc. 1000 nM): 0.0385 | kdis ([3]; Conc. 1000 nM): 0.00109 s⁻¹ | kon ([3]; Conc. 1000 nM): 2350 M⁻¹ s⁻¹ | Max Response ([3]; Conc. 1667 nM): 0.0544 | kdis ([3]; Conc. 1667 nM): 0.00109 s⁻¹ | kon ([3]; Conc. 1667 nM): 2350 M⁻¹ s⁻¹ | Max Response ([3]; Conc. 3333 nM): 0.0757 | kdis ([3]; Conc. 3333 nM): 0.00109 s⁻¹ | kon ([3]; Conc. 3333 nM): 2350 M⁻¹ s⁻¹
